Laboratory results taken from the supplement of paper PMC10567573.

B1: FEM1A (parent)
chain: PCCSSSPEEPLNGESYESCCPTSR

Variants of: B1
Assay: protein stability index of a GFP-peptide fusion (GPS, HEK-293T) (PSI 1-6); higher = more stable
Details: c terminus: a fixed tail appended
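Also: lentivirally expressed fusions sorted by FACS into six bins by GFP to DsRed ratio, PSI derived from sequencing read proportions per bin multiplied by bin number.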

| Variant | protein stability index |
| --- | --- |
| PCCLSSPEEPLNGESYESCCPTSR [S4L] | 2.98 |
| PCCISSPEEPLNGESYESCCPTSR [S4I] | 3.81 |
| PCCASSPEEPLNGESYESCCPTSR [S4A] | 3.72 |
| PCCWSSPEEPLNGESYESCCPTSR [S4W] | 3.85 |
| PCCFSSPEEPLNGESYESCCPTSR [S4F] | 3.33 |
| PCCGSSPEEPLNGESYESCCPTSR [S4G] | 3.5 |
| PCCDSSPEEPLNGESYESCCPTSR [S4D] | 4.42 |
| PCCNSSPEEPLNGESYESCCPTSR [S4N] | 3.95 |
| PCCQSSPEEPLNGESYESCCPTSR [S4Q] | 3.67 |
| PCCVSSPEEPLNGESYESCCPTSR [S4V] | 4.1 |
| PCCCSSPEEPLNGESYESCCPTSR [S4C] | 1.94 |
| PCCMSSPEEPLNGESYESCCPTSR [S4M] | 3.19 |
| PCCKSSPEEPLNGESYESCCPTSR [S4K] | 3.65 |
| PCCPSSPEEPLNGESYESCCPTSR [S4P] | 4.58 |
| PCCESSPEEPLNGESYESCCPTSR [S4E] | 3.87 |
| PCCYSSPEEPLNGESYESCCPTSR [S4Y] | 3.37 |
| PCCRSSPEEPLNGESYESCCPTSR [S4R] | 3.14 |
| PCCHSSPEEPLNGESYESCCPTSR [S4H] | 4.21 |
| PCCTSSPEEPLNGESYESCCPTSR [S4T] | 4.13 |
| PTCSSSPEEPLNGESYESCCPTSR [C2T] | 5.23 |
| PWCSSSPEEPLNGESYESCCPTSR [C2W] | 4.37 |
| PYCSSSPEEPLNGESYESCCPTSR [C2Y] | 4.62 |
| PVCSSSPEEPLNGESYESCCPTSR [C2V] | 5.21 |
| PCWSSSPEEPLNGESYESCCPTSR [C3W] | 4.79 |

| Variant | protein stability index |
| --- | --- |
| PCESSSPEEPLNGESYESCCPTSR [C3E] | 5.27 |
| PCKSSSPEEPLNGESYESCCPTSR [C3K] | 4.7 |
| PCHSSSPEEPLNGESYESCCPTSR [C3H] | 4.85 |
| PCNSSSPEEPLNGESYESCCPTSR [C3N] | 4.75 |
| PCSSSSPEEPLNGESYESCCPTSR [C3S] | 5.22 |
| PCYSSSPEEPLNGESYESCCPTSR [C3Y] | 4.66 |
| PCQSSSPEEPLNGESYESCCPTSR [C3Q] | 5.4 |
| PCRSSSPEEPLNGESYESCCPTSR [C3R] | 4.23 |
| PCASSSPEEPLNGESYESCCPTSR [C3A] | 4.02 |
| PCGSSSPEEPLNGESYESCCPTSR [C3G] | 4.91 |
| PCISSSPEEPLNGESYESCCPTSR [C3I] | 4.19 |
| PCMSSSPEEPLNGESYESCCPTSR [C3M] | 5.05 |
| PCDSSSPEEPLNGESYESCCPTSR [C3D] | 5.82 |
| PCFSSSPEEPLNGESYESCCPTSR [C3F] | 4.83 |
| PCTSSSPEEPLNGESYESCCPTSR [C3T] | 5.06 |
| PCPSSSPEEPLNGESYESCCPTSR [C3P] | 4.95 |
| PCLSSSPEEPLNGESYESCCPTSR [C3L] | 4.76 |
| PCVSSSPEEPLNGESYESCCPTSR [C3V] | 5 |
| PCCSSSQEEPLNGESYESCCPTSR [P7Q] | 4.44 |
| PCCSSSMEEPLNGESYESCCPTSR [P7M] | 3.11 |
| PCCSSSAEEPLNGESYESCCPTSR [P7A] | 3.34 |
| PCCSSSEEEPLNGESYESCCPTSR [P7E] | 3.93 |
| PCCSSSIEEPLNGESYESCCPTSR [P7I] | 3.03 |
| PCCSSSGEEPLNGESYESCCPTSR [P7G] | 3.38 |

| Variant | protein stability index |
| --- | --- |
| PCCSSSHEEPLNGESYESCCPTSR [P7H] | 3.37 |
| PCCSSSNEEPLNGESYESCCPTSR [P7N] | 3.14 |
| PCCSSSDEEPLNGESYESCCPTSR [P7D] | 4.65 |
| PCCSSSFEEPLNGESYESCCPTSR [P7F] | 3.51 |
| PCCSSSLEEPLNGESYESCCPTSR [P7L] | 3.07 |
| PCCSSSKEEPLNGESYESCCPTSR [P7K] | 3.65 |
| PCCSSSSEEPLNGESYESCCPTSR [P7S] | 3.62 |
| PCCSSSCEEPLNGESYESCCPTSR [P7C] | 3.67 |
| PCCSKSPEEPLNGESYESCCPTSR [S5K] | 2.85 |
| PCCSGSPEEPLNGESYESCCPTSR [S5G] | 3.66 |
| PCCSISPEEPLNGESYESCCPTSR [S5I] | 3.4 |
| PCCSYSPEEPLNGESYESCCPTSR [S5Y] | 2.6 |
| PCCSLSPEEPLNGESYESCCPTSR [S5L] | 3.02 |
| PCCSNSPEEPLNGESYESCCPTSR [S5N] | 3.47 |
| PCCSHSPEEPLNGESYESCCPTSR [S5H] | 4.12 |
| PCCSQSPEEPLNGESYESCCPTSR [S5Q] | 3.6 |
| PCCSCSPEEPLNGESYESCCPTSR [S5C] | 3.38 |
| PCCSMSPEEPLNGESYESCCPTSR [S5M] | 2.53 |
| PCCSWSPEEPLNGESYESCCPTSR [S5W] | 3.02 |
| PCCSVSPEEPLNGESYESCCPTSR [S5V] | 4.45 |
| PCCSPSPEEPLNGESYESCCPTSR [S5P] | 3.49 |
| PCCSTSPEEPLNGESYESCCPTSR [S5T] | 3.9 |
| PCCSASPEEPLNGESYESCCPTSR [S5A] | 3.49 |
| PCCSFSPEEPLNGESYESCCPTSR [S5F] | 2.48 |

| Variant | protein stability index |
| --- | --- |
| PCCSDSPEEPLNGESYESCCPTSR [S5D] | 4.85 |
| PCCSRSPEEPLNGESYESCCPTSR [S5R] | 3.28 |
| PCCSESPEEPLNGESYESCCPTSR [S5E] | 4.24 |
| PCCSSPPEEPLNGESYESCCPTSR [S6P] | 3.76 |
| PCCSSEPEEPLNGESYESCCPTSR [S6E] | 4.01 |
| PCCSSLPEEPLNGESYESCCPTSR [S6L] | 2.91 |
| PCCSSWPEEPLNGESYESCCPTSR [S6W] | 3.27 |
| PCCSSTPEEPLNGESYESCCPTSR [S6T] | 3.93 |
| PCCSSRPEEPLNGESYESCCPTSR [S6R] | 3.66 |
| PCCSSIPEEPLNGESYESCCPTSR [S6I] | 3.7 |
| PCCSSCPEEPLNGESYESCCPTSR [S6C] | 3.63 |
| PCCSSDPEEPLNGESYESCCPTSR [S6D] | 3.92 |
| PCCSSMPEEPLNGESYESCCPTSR [S6M] | 3.57 |
| PCCSSGPEEPLNGESYESCCPTSR [S6G] | 3.53 |
| PCCSSKPEEPLNGESYESCCPTSR [S6K] | 3.18 |
| PCCSSQPEEPLNGESYESCCPTSR [S6Q] | 4.11 |
| PCCSSVPEEPLNGESYESCCPTSR [S6V] | 3.8 |
| PCCSSHPEEPLNGESYESCCPTSR [S6H] | 3.4 |
| PCCSSNPEEPLNGESYESCCPTSR [S6N] | 3.81 |
| PCCSSYPEEPLNGESYESCCPTSR [S6Y] | 2.97 |
| PCCSSAPEEPLNGESYESCCPTSR [S6A] | 3.22 |
| PCCSSFPEEPLNGESYESCCPTSR [S6F] | 3.13 |
